Patent publication US20130263324, “METHODS FOR PRODUCING A COMPLEX TRANSGENIC TRAIT LOCUS” (E.I. du Pont de Nemours and Company, published 2013)

Columns and labels:
[1] = tested on: MHP77-3 meganuclease (engineered I-CreI); experiment: cell_activity; settings: maize embryos
[2] = target: T1, MHP14+ meganuclease (engineered I-CreI); experiment: cell_activity; maize embryos; settings: tags: SV40 NLS
T1 chain: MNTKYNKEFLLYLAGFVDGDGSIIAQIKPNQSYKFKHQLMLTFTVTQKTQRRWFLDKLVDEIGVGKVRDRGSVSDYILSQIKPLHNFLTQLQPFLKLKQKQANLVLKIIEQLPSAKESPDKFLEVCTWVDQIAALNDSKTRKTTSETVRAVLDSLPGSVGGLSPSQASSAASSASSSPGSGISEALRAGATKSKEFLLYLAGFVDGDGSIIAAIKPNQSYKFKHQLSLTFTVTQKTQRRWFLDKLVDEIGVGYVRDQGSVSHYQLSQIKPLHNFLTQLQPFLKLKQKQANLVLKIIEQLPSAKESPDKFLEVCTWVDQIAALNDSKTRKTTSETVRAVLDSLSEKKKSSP
Procedure: (§1) Trait gene cassettes can be introduced at other target sites of the complex trait locus through homologous recombination mediated by engineered meganucleases. Engineered meganucleases were designed to direct double strand breaks a two other MHP target sites, MHP55 (SEQ ID NO: 72) and MHP77 (SEQ ID NO: 74) within the complex trait locus. Target site modification was determined using qPCR. The probe sequence for qPCR screening of the MHP55 target site was […] (SEQ ID NO: 115), the MHPTS55_Forward_MGBprimer sequence was […] (SEQ ID NO: 116), and MHP55_reverse_MGB primer was […] (SEQ ID NO: 117). The probe sequence for qPCR of MHP77 target site was […] (SEQ ID NO: 118), the MHPTS77_Forward_MGB primer sequence was […] (SEQ ID NO: 119), and MHP77_reverse_MGB primer was […] (SEQ ID NO: 120). The trait gene cassettes encoding MHP14, MHP55 and MHP77 were introduced into maize somatic embryos via transformation techniques using bombardment and following bombardment, embryos were incubated on 560P (maintenance medium) for 48 hours […].

[3] = target: T2, MHP55-2 meganuclease (engineered I-CreI); experiment: cell_activity; maize embryos; settings: tags: SV40 NLS
T2 chain: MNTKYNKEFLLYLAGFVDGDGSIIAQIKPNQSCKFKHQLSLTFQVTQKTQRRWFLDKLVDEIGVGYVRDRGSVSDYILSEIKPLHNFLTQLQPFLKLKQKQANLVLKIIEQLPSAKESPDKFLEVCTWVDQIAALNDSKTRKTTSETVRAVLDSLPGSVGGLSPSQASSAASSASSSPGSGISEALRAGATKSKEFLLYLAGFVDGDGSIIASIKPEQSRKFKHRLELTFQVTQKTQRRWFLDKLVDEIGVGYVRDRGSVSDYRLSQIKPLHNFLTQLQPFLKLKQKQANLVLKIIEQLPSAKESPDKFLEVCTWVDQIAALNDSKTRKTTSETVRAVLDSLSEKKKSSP
Procedure: as §1

[4] = target: T3, MHP77 meganuclease (engineered I-CreI); experiment: cell_activity; maize embryos; settings: tags: SV40 NLS
T3 chain: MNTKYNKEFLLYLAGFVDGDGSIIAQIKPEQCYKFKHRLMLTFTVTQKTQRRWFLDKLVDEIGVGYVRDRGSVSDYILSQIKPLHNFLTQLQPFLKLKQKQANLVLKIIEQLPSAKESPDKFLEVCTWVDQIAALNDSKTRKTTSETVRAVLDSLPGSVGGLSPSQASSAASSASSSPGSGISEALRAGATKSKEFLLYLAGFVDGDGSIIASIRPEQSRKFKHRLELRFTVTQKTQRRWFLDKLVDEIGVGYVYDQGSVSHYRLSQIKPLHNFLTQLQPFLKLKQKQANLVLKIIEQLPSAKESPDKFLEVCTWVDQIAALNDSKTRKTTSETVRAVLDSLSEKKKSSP
Procedure: as §1

## GGGCGGTATGTATGTCATACTA (double strand) [MHP77 target]
[1]
  activity (% target site mutation): 11

B1: MHP14 target (dsDNA)
DNA 1: CAAACAGATTCACGTCAGATTT
DNA 2: AAATCTGACGTGAATCTGTTTG
[2]
  activity: 40 % target site mutation

B2: MHP55 target (dsDNA)
DNA 1: CCAACCGTCGTGAGACCTGCCC
DNA 2: GGGCAGGTCTCACGACGGTTGG
[3]
  activity: 5 % target site mutation

B3: MHP77 target (dsDNA)
DNA 1: GGGCGGTATGTATGTCATACTA
DNA 2: TAGTATGACATACATACCGCCC
[4]
  activity: 1 % target site mutation
